Measured values as given in PMC9330529.

Legend:
[1] = target: SARS-CoV-2 spike protein Delta (SARS-CoV-2 (Delta variant)) (UniProt P0DTC2); experiment: flow cytometry on Ni-NTA beads
[2] = target: SARS-CoV-2 spike protein Delta (SARS-CoV-2 (Delta variant)) (UniProt P0DTC2); experiment: streptavidin bead fluorescence binding

“CGCAGCACCCAAGAACAAGGACTGCTTAGGATTGCGATAGGTTCGGAAAAAAGGCGGGTTCCTAGACTTGTACTCAGCCT [S1B6C3-A5-S2A2C1]” gave a Kd [1] of 32.6 nM and a Kd [2] of 34.1 nM.
